Paper PMC6684798, “Structural basis for the target specificity of actin histidine methyltransferase SETD3” (Nature Communications, 2019)

Biological target: T1, SETD3 (Homo sapiens, UniProt Q86TU7)
T1 construct: GST (cleaved yes); made in house; host or cells: Escherichia coli BL21(DE3) CodonPlus
T1 sequence (Q86TU7 1-594): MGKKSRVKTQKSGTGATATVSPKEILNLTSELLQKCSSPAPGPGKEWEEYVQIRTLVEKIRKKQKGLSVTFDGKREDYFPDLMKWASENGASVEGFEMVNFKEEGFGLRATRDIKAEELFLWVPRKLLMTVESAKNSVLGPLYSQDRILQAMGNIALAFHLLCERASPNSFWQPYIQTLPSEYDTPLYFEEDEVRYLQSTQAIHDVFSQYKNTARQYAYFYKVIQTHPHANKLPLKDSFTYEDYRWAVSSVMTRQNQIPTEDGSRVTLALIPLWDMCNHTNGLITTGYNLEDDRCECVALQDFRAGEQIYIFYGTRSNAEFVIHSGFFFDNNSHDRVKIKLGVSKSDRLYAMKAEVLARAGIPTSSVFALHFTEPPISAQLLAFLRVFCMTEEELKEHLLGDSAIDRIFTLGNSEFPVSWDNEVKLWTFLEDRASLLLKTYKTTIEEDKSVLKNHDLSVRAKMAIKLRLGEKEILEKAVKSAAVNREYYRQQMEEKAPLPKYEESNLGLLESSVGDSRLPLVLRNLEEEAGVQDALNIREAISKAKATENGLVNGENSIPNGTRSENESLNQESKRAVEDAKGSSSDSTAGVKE
Assay: SETD3 activity time course under conditions optimized for H73(66-80) (Supplementary Fig. 3a)
Type: biochemical
Settings: pH 8.0, room temperature; for CH3 transferred: [E]=0.18 µM, [SAM]=40 µM, [S]=20 µM
Procedure: Recombinant human SETD3 (pXC2003) was expressed as a GST-fusion[22] in Escherichia coli BL21(DE3) CodonPlus^TM cells (Stratagene). The SETD3 mutants at residue 255 (N255A; pXC2093 and N255V; pXC2094) were generated with Q5 Site-Directed Mutagenesis Kit (New England Biolabs), confirmed by sequencing and the same protocol for expression and purification were followed. Briefly, the purification was conducted in a BIO-RAD NGC^TM system using a three-column chromatography of glutathione-sepharose, HiTrap Q-HP and Superdex 200. The GST tag was removed by PreScisson Protease (purified in-house). The purified SETD3 proteins at a concentration ~25–35 mg/ml were kept at −80 °C in storage buffer for future use [20 mM Tris (pH 8.0), 200 mM NaCl, 5% glycerol, and 0.5 mM tris (2-carboxyethyl) phosphine (TCEP)]. […]
conditions optimized for H73(66-80) (red line): [E]=0.18 µM, [SAM]=40 µM, [S]=20 µM, pH 8.0 at room temperature for indicated reaction time. b, SETD3 activity on H73(66-80) at two difference temperatures under the conditions of [E]=0.18 µM, [SAM]=40 µM, [SH7 3]=20 µM at pH 8. 0 for 20 min reaction. c, SETD3 activity on K73 (66-80 ) at room temperature (~22 °C) and 37 °C under the conditions of increased amounts of [E]=15 µM, [SAM]=100 µM and [S K73]=700 µM at pH 8.0 for overnight reaction. Data represent the mean ± SD of N number of independent determinations (N=2 in panels a and b and N=4 in panel c) performed in duplicate. […]

K73(66–80): K73-containing (H73K) actin peptide, residues 66–80 (TLKYPIEKGIVTNWD; UniProt P60709 66-80, looked up, variant H73K)
CH3 transferred (0 min, replicate 1): 0 µM
CH3 transferred (0 min, replicate 2): 0 µM
CH3 transferred (10 min, replicate 1): 0.00913 µM
CH3 transferred (10 min, replicate 2): 0.005151 µM
CH3 transferred (20 min, replicate 1): 0.005187 µM
CH3 transferred (20 min, replicate 2): 0.000604 µM
CH3 transferred (30 min, replicate 1): 0.002842 µM
CH3 transferred (30 min, replicate 2): -0.00142 µM
SETD3 activity under conditions optimized for H73 peptide ([E] = 0.18 µM, [SAM] = 40 µM, [S] = 20 µM): no activity
